B1: TPR t1 (parent)
chain: GACCAAUCUGCCCUCAGAGCUCGAGAACAUCUUCGGAUGCAGAGGAGGCAGGCUUCGGUGGCGCGAUAGCGCCAACGUCCUCAACCUCCAAUGCAUCCCACCACAUGAUGAUGCCUGAAGAGCCUUGGUUUUUUG

In this series the parent is B1. As to the kind of experiment: polymerase ribozyme fitness, log enrichment relative to wild type (log ratio); higher = more active; in vitro selection for triplet polymerase activity. An outline of the steps: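 A single round of triplicate in vitro selection, including frozen incubation at −7 °C, was applied to PCR-built, transcribed mutant libraries of each subunit of a heterodimeric triplet polymerase ribozyme. Illumina sequencing of input and output libraries retained genotypes with ≥10 input reads and ≥1 read per output. Fitness is the base-2 logarithm of genotype enrichment divided by wild-type enrichment, from inverse-variance-weighted replicate averages.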
GACCAAUCUGCCCUCAGAGCUCGAGAACAUCUUCGGAUGCAGAGGAGGCAGGCUUCGGUGGGGCGAUAGCGCCAACGUCCUCAACCUCCAAUCCAUCCCACCACAUGAUGAUGCCUGAAAAGCCGUGGUUGUUUG: the “polymerase ribozyme fitness (log ratio)” value was -3.65.

Take GACCAAUCUGCCCUCAGAGCUCGAGAACAUCUUCGGAUGCAGAGGAGGCAGGCUUCGGUGGGGCGAUAGCGCCAACGUCCUCAACCUCCAAUGCAUCCCACCACAUGAUGAGGCCUGAAGAGCCUUGGUUUUUUG: the “polymerase ribozyme fitness (log ratio)” value is -1.83.

For the variant GACCAAUCUGCCCUCAGAGCUCGAGAACAUCUUCGGAUGCAGAGGAGGCAGGCUUCGGUGGGGCGAUAGCGCCAACGUCCUCUACCUCCAAUGCAACCCACCACAUGAUGAUGCCUGAAGAGCCUUGGUUUUUUG, the “polymerase ribozyme fitness (log ratio)” value was -4.56.

Turning to GACCAAUCUGCCCUCAGAGCUCGAGAACAUCUUCGGAUGCAGAGGAGGCAGGCUUCGGUGGAGCGAUAGCGCCAACGUCCUCAACCUCCAAUGCAUCCCACCACAUGAUGAUGCCUGAAGAGCCUUGGUUUUAUG, the “polymerase ribozyme fitness (log ratio)” value was -1.52.

For GACCAAUCUGCCCUCAGAGCUCGAGAACAUCUUCGGAUGCAGAGGAGGCAGGCUUCGGUGGGGCGAUAGCGCCAACGUCCUCUUCCUCCAAUGCAUCCCACCACAUGAUGAUGCCUGAAGAGCCUUGGUUUUUUG, the “polymerase ribozyme fitness (log ratio)” value is -2.65.

As for GACCAAUCUGCCCUCAGAGCUCGAGAACAUCUUCGGAUGCAGAGGAGGCAGGCUUCGGUGGUGUGAUAGCGCCAACGUCCUCAACCUCCAAUGCAUCCCACCACAUGAUGAUGCCUGAAGAGCCUUGGUUUUUUG, the “polymerase ribozyme fitness (log ratio)” value is -0.305.

As to GACCAAUCUGCCCUCAGAGCUCGAGAACAUCUUCGGAUGCAGAGGAGGCAGGCUUCGGUGGGGCGAUAGCGCCAACGUCCUCAACCUCCAAUGCAUCCCACAACAUGAUGAUGCAUGAAGAGCCUUGGUUUUUUG, the “polymerase ribozyme fitness (log ratio)” value was -2.67.

As for GACCAAUCUGCCCUCAGAGCUCGAGAACAUCUUCGGAUGCAGAGGAGGCAGGCUUCGGUGGGGCGAUAGCGCCAACGUCCUCAACCUCCAAUGCAUCCCACCACGUGAUGAUGCCUGAAGAGCCUUGGUUUUUUG, the “polymerase ribozyme fitness (log ratio)” value was -4.99.

As to GACCAAUCUGCCCUCAGAGCUCGAGAACAUCUUCGGAUGCAGAGGAGGCAGGCUUCGGUGGGGCGAUAGCGCCAAGGUCCUCAACCUCCAAUGCAUCCCACCACAUGAUGAAGCCUGAAGAGCCUUGGUUUUUUG, the “polymerase ribozyme fitness (log ratio)” value is -3.99.

With GACCAAUCUGCCCUCAGAGCUCGAGAACAUCUUCGGAUGCAGAGGAGGCAGGCUUCGGUGGUGCGAUAGCGCCAACGUCCUCAACCUGCAAUGCAUCCCACCACAUGAUGAUGGCUGAAGAGCCUUGGUUUUUUG, the “polymerase ribozyme fitness (log ratio)” value was -3.23.

Regarding GACCAAUCUGCCCUCAGAGCUCGAGAACAUCUUCGGAUGCAGAGGAGGCAGGCUUCGGUGGGGCGAUAGCGCCAACGUCCUCAACCUCCAAUGCAUCCCACCACAUGAUGAUGCCUGAAGAGCCUUGGUUUUUUG, the “polymerase ribozyme fitness (log ratio)” value was -1.53.

Consider GACCAAUCUGCCCUCAGAGCUCGAGAACAUCUUCGGAUGCAGAGGAGGCAGGCUUCGGUGGUGCGAUAGCGCCAACGUCCUCAACCUCCAAUGCAUCCCACCACAUGAUGAUGCCUGAAGAGCCUUGGUUUUUUG, for which the “polymerase ribozyme fitness (log ratio)” value was -0.118.

Consider GACCAAUCUGCCCUCAGAGCUCGAGAACAUCUUCGGAUGCAGAGGAGGCAGGCUUCGGUGGGGCGAUAGCGCCAACGUCCUCAACCUCCAAUGCAUCCCACCACAUGAUGAUGCCUGAAGAUCCUUGGUUUUUUG, for which the “polymerase ribozyme fitness (log ratio)” value was -1.08.

As to GACCAAUCUGCCCUCAGAGCUCGAGAACAUCUUCGGAUGCAGAGGAGGCAGGCUUCGGUGGGGCGAUAGCGCCAACGUUCUCAACCUCCAAUGCAUCCCACCACAUGAUGAUGCCUGAAGAGCCUUGGUUUUUUG, the “polymerase ribozyme fitness (log ratio)” value is -1.14.

GACCAAUCUGCCCUCAGAGCUCGAGAACAUCUUCGGAUGCAGAGGAGGCAGGCUUCGGUGGUGCGAUAGCGUCAACGUCCUCAACCUCCAAUGCAUCCCACCACAUGAUGAUGCCUGAAGAGCCUUGGUUUUUUG: the “polymerase ribozyme fitness (log ratio)” value is -1.03.

On to GACCAAUCUGCCCUCAGAGCUCGAGAACAUCUUCGGAUGCAGAGGAGGCAGGCUUCGGUGGGGCGAUAGCGCCAACGUCCUCAACCUCCAAUGCAUCCCACCACAUGAUGAUGCCUGAAUAGCCUUGGUUUUUUG, for which the “polymerase ribozyme fitness (log ratio)” value is -1.64.

For GACCAAUCUGCCCUCAGAGCUCGAGAACAUCUUCGGAUGCAGAGGAGGCAGGCUUCGGUGGUGCGAUAGCGCUAACGUUUUCAACCUCCAAUGCAUCCCACCACAUGAUGAAGCCUGAAGAGCCUUGGUUUUUUG, the “polymerase ribozyme fitness (log ratio)” value is -3.4.

With GACCAAUCUGCCCUCAGAGCUCGAGAACAUCUUCGGAUGCAGAGGAGGCAGGCUUCGGUGGGGCGAUAGCGCCAACGUCCUCAACCUCCAAUCCAUCCCACCACAUGAUGAUGCCUGAAGAGCCUUGGUUUUUUG, the “polymerase ribozyme fitness (log ratio)” value is -3.7.

GACCAAUCUGCCCUCAGAGCUCGAGAACAUCUUCGGAUGCAGAGGAGGCAGGCUUCGGUGGUGCGAUAGCGCCAACGUCCUCAACCUCGAAUACAUCCCAUCACAUGAUGAUCUCUGAAGAGCCUUCGUUUUUUG: the “polymerase ribozyme fitness (log ratio)” value was -4.42.

Take GACCAAUCUGCCCUCAGAGCUCGAGAACAUCUUCGGAUGCAGAGGAGGCAGGCUUCGGUGGUGCGAUAGCGCCAACGUCCUCACCCUCAAAUGCAUCCCACCACAUGAUGAUGCCUGAAGAGUCUUGGUUUUUUG: the “polymerase ribozyme fitness (log ratio)” value is -1.62.

Regarding GACCAAUCUGCCCUCAGAGCUCGAGAACAUCUUCGGAUGCAGAGGAGGCAGGCUUCGGUGGUGCGAUAGCGCCAACGUCCUCAACCUCCAAUGCAUCCCACCACAUGAUGAUGCCUGAAGGGCCUUGGUUUUUUG, the “polymerase ribozyme fitness (log ratio)” value worked out at 2.41.

Values taken from the RNAGym collection of RNA variant scans (doi:10.1073/pnas.2313332121).
